The target of assay [1] is T1, glutathione S-transferase (UniProt P08515 1-218 = GST).
T1 construct: Expressed in E. coli, purified on GSH resin; also called GST
As to the kind of experiment: SPR, GST immobilised (legend of FIG. 3H; differs from Table 1). On the technique in general: SPR reads the build-up and loss of mass on a sensor chip optically.
Procedure: (§1) Nb affinity measurement by SPR. Surface plasmon resonance (SPR, Biacore 3000 system, GE Healthcare) was used to measure Nb affinities. Antigen proteins immobilized on the activated CM5 sensor-chip by the following steps. Protein analytes were diluted to 10-30 μg/ml in 10 mM sodium acetate, pH 4.5, and were injected into the SPR system at 5 μl/min for 420 s. The surface of the sensor was then blocked by 1 M ethanolamine-HCl (pH 8.5). For each Nb analyte, a series of dilution (spanning three orders of magnitude) was injected in HBS-EP+ running buffer (GE-Healthcare) containing 2 mM DTT, at a flow rate of 20-30 μl/min for 120-180 s, followed by a dissociation time of 5-20 mins based on dissociation rate. Between each injection, the sensor chip surface was regenerated with the low pH buffer containing 10 mM glycine-HCl (pH 1.5-2.5), or high pH buffer of 20-40 mM NaOH (pH 12-13). The regeneration was performed with a flow rate of 40-50 μl/min for 30 s. The measurements were duplicated and only highly reproducible data was used for analysis. Binding sensorgrams for each Nb were processed and analyzed using BIAevaluation by fitting with 1:1 Langmuir model or 1:1 Langmuir model with mass transfer.

Assay [2] addresses T1, glutathione S-transferase. Nature of the assay: SPR, GST immobilised.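 Note: nanobody analytes injected as dilution series over three orders of magnitude across antigen on a CM5 chip, kinetics fitted by 1:1 Langmuir model, optionally with mass transfer, duplicate runs.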
Procedure: as §1
For assay [3], the target named is T1, glutathione S-transferase. As to the kind of experiment: indirect ELISA, GST coated.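 Note: nanobody dilution series starting at 10 µM binding plate-bound antigen, HRP anti-His or anti-T7 tag detection, TMB absorbance at 450 nm, logIC50 from four-parameter logistic fit.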 On the technique in general: An ELISA detects its analyte on a solid surface through an enzyme-linked reagent.
Procedure: Indirect ELISA was carried out to evaluate the camelid immune response of an antigen and to quantify the relative affinities of antigen-specific Nbs. An antigen was coated onto a 96-well ELISA plate (R&D system) at an amount of approximately 1-10 ng per well in a coating buffer (15 mM sodium carbonate, 35 mM sodium bicarbonate, pH 9.6) overnight at 4° C. The well surface was then blocked with a blocking buffer (DPBS, 0.05% Tween 20, 5% milk) at room temperature for 2 hours. To test an immune response, the immunized serum was serially 5-fold diluted in the blocking buffer. The diluted sera were incubated with the antigen coated wells at room temperature for 2 hours. HRP-conjugated secondary antibodies against llama Fc (Bethyl) were diluted 1:10,000 in the blocking buffer and incubated with each well for 1 hour at room temperature. […] Nbs of both specific binders for test and scramble negative controls were serially 10-fold diluted from 10 μM to 1 μM in the blocking buffer. HRP-conjugated secondary antibodies against His-tag (Genscript) or T7-tag (Thermo) were diluted 1:5,000 or 1:10,000 in the blocking buffer and incubated for 1 hour at room temperature. Three washes with 1x PBST (DPBS, 0.05% Tween 20) were carried out to remove nonspecific absorbance between incubations. After the final wash, the samples were further incubated under dark with freshly prepared w3,3′,5,5′-Tetramethylbenzidine (TMB) substrate for 10 mins at room temperature to develop the signals. After the STOP solution (R&D system), the plates were read at multiple wavelengths (450 nm and 550 nm) on a plate reader (Multiskan GO, Thermo Fisher). A false positive Nb binder was defined if any of the following two criteria was met: i) the ELISA signal can only be detected at a concentration of 10 μM and was under detected at 1 μM concentration. ii) At 1 μM concentration, a pronounced signal decrease (by more than 10-fold) was detected compared to the signal at 10 μM, while there were no signals can be detected at lower concentrations. The raw data was processed by Prism 7 (GraphPad) to fit into a 4PL curve and to calculate logIC50.
Assay [4] deals with T2, PDZ domain of mitochondrial outer membrane protein 25 (mammalian (so in the source), UniProt P57105 6-100, limits assumed).
T2 construct: domain: PDZ domain; Wild type PDZ as coated in ELISA and immobilised in SPR; also called wild type PDZ; OMP25 PDZ domain
T2 sequence (looked up): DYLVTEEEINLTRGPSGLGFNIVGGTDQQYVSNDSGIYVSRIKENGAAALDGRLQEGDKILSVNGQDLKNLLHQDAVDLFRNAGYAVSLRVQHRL
As to the kind of experiment: SPR, PDZ immobilised.

Assay [5] deals with T2, PDZ domain of mitochondrial outer …. As to the kind of experiment: indirect ELISA, wild type PDZ coated.
Procedure: Indirect ELISA was carried out to evaluate the camelid immune response of an antigen and to quantify the relative affinities of antigen-specific Nbs. An antigen was coated onto a 96-well ELISA plate (R&D system) at an amount of approximately 1-10 ng per well in a coating buffer (15 mM sodium carbonate, 35 mM sodium bicarbonate, pH 9.6) overnight at 4° C. The well surface was then blocked with a blocking buffer (DPBS, 0.05% Tween 20, 5% milk) at room temperature for 2 hours. To test an immune response, the immunized serum was serially 5-fold diluted in the blocking buffer. The diluted sera were incubated with the antigen coated wells at room temperature for 2 hours. […] Three washes with 1x PBST (DPBS, 0.05% Tween 20) were carried out to remove nonspecific absorbance between incubations. […] After the STOP solution (R&D system), the plates were read at multiple wavelengths (450 nm and 550 nm) on a plate reader (Multiskan GO, Thermo Fisher). A false positive Nb binder was defined if any of the following two criteria was met: i) the ELISA signal can only be detected at a concentration of 10 μM and was under detected at 1 μM concentration. ii) At 1 μM concentration, a pronounced signal decrease (by more than 10-fold) was detected compared to the signal at 10 μM, while there were no signals can be detected at lower concentrations. […]

T1 sequence (P08515 whole entry): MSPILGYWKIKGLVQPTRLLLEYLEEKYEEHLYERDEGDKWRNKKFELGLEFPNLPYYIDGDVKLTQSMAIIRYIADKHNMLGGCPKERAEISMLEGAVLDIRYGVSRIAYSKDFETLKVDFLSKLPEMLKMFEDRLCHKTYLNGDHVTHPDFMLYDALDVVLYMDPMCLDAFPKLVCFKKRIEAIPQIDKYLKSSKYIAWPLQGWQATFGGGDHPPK

B1: G60 (VHH)
VHH: QMGRNSAEVQLVESGGSLRLSCAASGSGFSSSIIAWYRQAPGKQRELVAAIGGPGSTNYADFVEGRFTISRDNAKNTGYLQMNNLNPEDTAVYYCNEVTRSGREYWGQGTQVTVSS
notes: also called G60(C1)
As to B1, in assay [1], the Kd (in general, a measure of binding affinity in units of concentration) came to 1.3 µM. Further, in assay [2], the dissociation constant (Kd) came out at 1.2 µM; the koff (in general, the rate constant with which the complex falls apart) was determined as 0.00586 s⁻¹; the kon (usually the second-order rate constant of association) came to 4870 M⁻¹ s⁻¹. In assay [3], the “ELISA affinity (LogIC50 (oD450nm))” value stood at 2.49.

B2: NbPDZ P10 (VHH)
VHH: DVQLVESGGGLVQAGGSLRLSCTASGRTFSTYTMAWFRQAPGKEREFVAAITWSGTYYADSVKGRFTISRDNAKNTMYLQMNSLKPEDTAVYICAAVIGSTVDSYSPSDPLEYDYWGQGTQVTVSE
With B2, in assay [4], the Kd turned out to be 4.4 pM, the koff was found to be 9.03e-06 s⁻¹ and the kon amounted to 2.06e+06 M⁻¹ s⁻¹. Further, the “WT ELISA affinity (LogIC50 (oD450nm))” value in assay [5] was found to be 5.21.

The values above are taken from patent US20230176070A1 (published 2023).
